How the values were obtained:
CD28 = target: T1, CD28 (Mus musculus, UniProt P31041); experiment: Co-immunoprecipitation of Myc-tagged V3 with CD28 in PKCθ−/− primary CD4+ T cells; type: binding; conditions: Myc-tagged V3 alone, retrovirus, CD3+CD28 mAbs 5 min
T1 construct: PKCθ^−/− primary CD4^+ T cells were infected with a retrovirus expressing a Myc-tagged V3 alone; endogenous in cells; host or cells: primary CD4+ T cells of PKCθ-/- mice, retrovirally transduced only with Myc-tagged V3
Protocol: (FIG. 2A) Schematic representation of PKCθ mutants. (FIG. 2B) Jurkat E6.1 cells transfected with the indicated PKCθ or PKCδ vectors were stimulated with anti-CD3/CD28 mAbs for 5 min. (FIG. 2C-2E) PKC CD4^+ T cells were infected with retrovirus expressing empty pMIG vector, WT PKCθ, or PKCθ−ΔV3 (FIG. 2C); WT PKCθ, PKCθ/δV3, or WT PKCδ (FIG. 2D); empty pMIG-vector or Myc-tagged V3 of PKCθ (FIG. 2E). Cells were harvested and restimulated with CD3+CD28 mAbs for 5 min. Cell lysates were prepared, immunoprecipitated with anti-CD28 mAb, resolved by SDS-PAGE, and immunoblotted with the indicated Abs. (FIG. 2F) Jurkat T cells cotransfected with Myc-tagged PKCθ−V3 plus CFP-tagged CD28 were mixed with SEE-pulsed Raji B cells at a 1:1 ratio. Conjugates were fixed and stained with a rabbit anti-Myc Ab plus a secondary Alexa 488-coupled antibody. Data shown is from four studies.
Retrovirally transduced CD4^+ T cells were stimulated with anti-CD3 and anti-CD28 mAbs for 5 min. Cell lysis in 1% digitonin lysis buffer, immunoprecipitation and Western blotting were carried out as described (Yokosuka, T. et al. Immunity 29, 589-601 (2008)).
To determine whether the V3 domain is sufficient for this interaction, PKCθ^−/− primary CD4^+ T cells were infected with a retrovirus expressing a Myc-tagged V3 alone. […]

[1] = tested on: Th1-mediated lung inflammation; experiment: Th1-mediated Ova-induced airway inflammation after adoptive transfer of transduced Th1 effector cells; type: in vivo, mouse; conditions: transferred Th1 effector cells
Description: (FIG. 7A-7D) OT-II CD4^+ T cells stimulated with anti-CD3 plus anti-CD28 mAbs and differentiated in vitro under Th2 (FIG. 7A-7C) or Th1 (FIG. 7D, 7E)-polarizing conditions were retrovitrally transduced with the same PKCθ V3 vectors as in FIG. 6. Sorted GFP^+ populations were adoptively transferred into naïve B6 mice, which were challenged with aerosolized Ova for 3 consecutive days. BAL fluid were obtained 1 d post-challenge and analyzed for total mononuclear cell infiltration (FIG. 7A, 7D) and cytokine expression using IL-4 (FIG. 7B), IL-5 (FIG. 7C) and IFN-γ (FIG. 7E) ELISA.
CD4^+ T cells from OT-II B6 mice were isolated and cultured with plate-bound anti-CD3 (5 μg/ml), soluble anti-CD28 (2.5 μg/ml) and IL-2 (100 U/ml) under Th1 or Th2 polarizing conditions. The cells were retrovirally infected on days 2-4 and cultured for an additional 3 days. GFP^+ cells were sorted, and 1×10^6 cells were injected intravenously into naïve WT B6 mice. One day later, mice received aerosolized Ova (5 mg/ml in 20 ml PBS) for 30 min, once a day for 3 consecutive days, using ultrasonic nebulization. Mice were sacrificed 24 h after the last challenge and assessed for lung inflammation. Collection of BAL fluid and determination of cytokine levels were carried out as described (Salek-Ardakani, S. et al. J Immunol 173, 6440-6447 (2004)).

endogenous PKCθ = experiment: IS localization in OT-II CD4+ T cells conjugated with Ova-loaded APCs (confocal); type: cell-based, mouse; conditions: OT-II TCR-Tg CD4+ T cells
Protocol: (FIG. 6A) OT-II CD4^+ T cells were infected with retrovirus expressing Myc-tagged V3 domain, V3 mutated at P330/1/4/6A (V3-4PA), or PR motif-deleted V3 (V3-ΔPR). Infected cells (green) were harvested, stimulated, and fixed. Conjugates were stained with anti-Myc plus a secondary Alexa 555-coupled antibody (orange), and anti-PKCθ plus a secondary Alexa 647-coupled antibody (red). Cells were analyzed as in FIG. 1A. (FIG. 6B) Quantitative analysis of the results shown in (FIG. 6A) from 30-50 T-APC conjugates. ** p<0.05. (FIG. 6C) MCC-specific T hybridoma cells were cotransfected with indicated vector, together with RE/AP-Luc and β-Gal reporter plasmids. Cells were stimulated and analyzed as in FIG. 1C. (FIG. 6D) Naïve CD4^+ T cells from B6 mice stimulated with anti-CD3 plus anti-CD28 mAbs and differentiated in vitro under Th1-, Th2- or Th17-polarizing conditions were retrovirally transduced with empty pMIG vector, or with the indicated PKCθ V3 vectors. Cytokine-producing cells were analyzed by intracellular staining 8 h after restimulation. Right panels represent cumulative data showing percentage of cytokine-producing cells by intracellular staining. (FIG. 6E) MCC-specific T hybridoma cells were cotransfected with the indicated plasmids, together with NFAT luciferase reporter and a β-Gal reporter plasmid. Cells were incubated with fibroblasts that express I-E^K and B7-1 in the absence or presence of MCC peptide for 6 hrs. Normalized luciferase activity was determined in triplicates.
Full-length human PKCθ and its derivatives were cloned as a GFP fusion protein in the pMX retroviral vector. Retroviral supernatants were used to infect preactivated CD4^+ T cells from PKCθ^−/− or WT OT-II mice. Transduced cells were rested for an additional three days. On the day of experiment, APC were prepared from WT B6 splenocytes that were depleted of CD4^+ T cells using anti-CD4 (L3T4) mAb-coated beads. T-depleted APC were stained with 20 μM of cell tracker blue (CMAC) and then pulsed with 5 μM Ova peptide, respectively, for 30 min at 37° C. T cell-APC conjugation was carried out at 37° C. for 20 min before fixation with 4% paraformaldehyde and permeabilization with PBS supplemented with 1% BSA and 0.1% Triton X-100. […] Immunofluorescene images were captured using a Marianas digital fluorescence-microscopy system (Intelligent Imaging Innovations) as described (Becart, S. et al. Immunity 29, 704-719 (2008)).
Given the critical role of the PKCθ V3 domain in the enzyme's CD28 association, IS localization, and activation of downstream targets, ectopic expression of the isolated V3 domain was analyzed for interference with the localization and function of PKCθ in stimulated T cells. […]

T1 sequence (P31041 20-218): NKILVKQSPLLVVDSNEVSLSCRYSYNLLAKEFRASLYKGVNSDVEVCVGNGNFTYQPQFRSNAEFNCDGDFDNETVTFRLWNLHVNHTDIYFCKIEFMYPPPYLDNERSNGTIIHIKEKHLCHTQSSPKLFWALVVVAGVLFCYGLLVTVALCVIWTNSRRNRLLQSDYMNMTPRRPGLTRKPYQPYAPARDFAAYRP
T1 sequence (P06240 2-509 partner): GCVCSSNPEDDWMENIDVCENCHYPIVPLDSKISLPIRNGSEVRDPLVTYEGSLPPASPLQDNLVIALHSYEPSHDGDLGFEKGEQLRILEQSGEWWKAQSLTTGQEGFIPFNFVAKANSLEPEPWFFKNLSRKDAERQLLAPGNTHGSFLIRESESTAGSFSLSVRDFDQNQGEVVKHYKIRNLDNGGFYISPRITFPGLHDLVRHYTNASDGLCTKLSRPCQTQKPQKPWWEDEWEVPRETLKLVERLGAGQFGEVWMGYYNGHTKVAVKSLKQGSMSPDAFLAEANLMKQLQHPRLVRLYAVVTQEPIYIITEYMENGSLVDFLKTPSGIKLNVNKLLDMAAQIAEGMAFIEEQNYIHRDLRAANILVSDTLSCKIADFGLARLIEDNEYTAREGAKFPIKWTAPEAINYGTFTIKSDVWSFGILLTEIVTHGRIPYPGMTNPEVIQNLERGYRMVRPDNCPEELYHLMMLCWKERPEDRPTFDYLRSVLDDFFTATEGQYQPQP

B1: V3 domain: amino acid 282-379 of human PKCθ with N-terminal Myc tag, expressed from pMIG retroviral vector (protein)
chain: GINQKLMAEALAMIESTQQARCLRDTEQIFREGPVEIGLPCSIKNEARPPCLPTPGKREPQGISWESPLDEVDKMCHLPEPELNKERPSLQIKLKIED
modifications: left off: small tags and cut ends
notes: amino acid 282-379 of human PKCθ with N-terminal Myc tag, expressed from pMIG retroviral vector
- coimmunoprecipitation with CD28 (CD28): coimmunoprecipitated with CD28
- inhibition of the Th1 lung inflammation response (leukocyte infiltration, IFN-γ in BAL fluid) [1]: did not inhibit
- effect on IS localization of endogenous PKCθ (endogenous PKCθ): sequestered from the IS
- subcellular localization of the transduced V3 protein (endogenous PKCθ): translocated to and selectively localized in the IS

From patent US20180335433A1, “COMPOSITIONS TARGETING PKC-THETA AND USES AND METHODS OF TREATING PKC-THETA PATHOLOGIES, ADVERSE IMMUNE RESPONSES AND DISEASES” (La Jolla Institute for Allergy and Immunology, priority 2011, published 2018)
